The text below walks through data of patent US20100136539A1.

Experiment [1] deals with Ezrin (human) (UniProt P15311). In words: Vidas sandwich ELISA, 1/50 Caco2 lysate; negative control as capture, detection 4A7A6C1-biotin. Background: In an ELISA, binding on a coated surface is turned into a signal by an enzyme label.
The target of experiment [2] is Ezrin (human) (UniProt P15311). Nature of the experiment: Vidas sandwich ELISA, 1/50 Caco2 lysate; negative control as capture, detection 4G11B5-biotin.

UniProt P15311, sequence (P15311 whole entry): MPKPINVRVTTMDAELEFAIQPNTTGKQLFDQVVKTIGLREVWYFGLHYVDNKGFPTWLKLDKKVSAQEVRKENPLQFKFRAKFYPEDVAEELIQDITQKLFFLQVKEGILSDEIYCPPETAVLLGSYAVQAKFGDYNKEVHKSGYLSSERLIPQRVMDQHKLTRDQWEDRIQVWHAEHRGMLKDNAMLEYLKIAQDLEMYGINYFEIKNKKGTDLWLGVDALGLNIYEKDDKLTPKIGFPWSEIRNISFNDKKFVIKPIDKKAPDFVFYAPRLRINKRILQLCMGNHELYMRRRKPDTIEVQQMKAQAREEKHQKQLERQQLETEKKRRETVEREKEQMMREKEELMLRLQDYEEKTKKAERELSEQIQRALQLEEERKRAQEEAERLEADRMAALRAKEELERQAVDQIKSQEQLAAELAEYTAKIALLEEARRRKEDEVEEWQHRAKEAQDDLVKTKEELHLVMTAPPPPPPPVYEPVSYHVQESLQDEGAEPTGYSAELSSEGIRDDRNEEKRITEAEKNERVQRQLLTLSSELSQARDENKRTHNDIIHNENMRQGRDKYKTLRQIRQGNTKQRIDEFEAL

As for Negative control, the Vidas sandwich immunoassay signal with Ezrin (human) [1] was found to be 3 RFV; with Ezrin (human) [2], 2.5 RFV.
